Reference: US20080075684A1
One block for each molecule: values may come before it.

Columns and labels:
keratin of human hair [1] = test: quantitative hair binding test: human hair incubated with His-tagged comparison protein, detection with anti-polyhistidine peroxidase conjugate and TMB, absorption at 405 nm
keratin of human hair [2] = test: quantitative hair binding test with the denatured (not renatured) protein: human hair, detection with anti-polyhistidine peroxidase conjugate and TMB, absorption at 405 nm
keratin of human hair [3] = test: quantitative hair binding test: human hair incubated with renatured His-tagged KBD-B, detection with anti-polyhistidine peroxidase conjugate and TMB, absorption at 405 nm

- A405 nm (keratin of human hair [1]): 0.088
Molecule: YaaD from B. subtilis (comparison protein, with His tag) (from UniProt P37527)

- A405 nm (keratin of human hair [2]): 0.254
- A405 nm (keratin of human hair [3]): 1.59
B1: KBD-B (keratin-binding domain B of human desmoplakin), expressed by the vector pQE30-KBD-B in E. coli (protein)
chain: MRGSHHHHHHGSACELEPHTGLLLLSVQKRSMSFQGIRQPVTVTELVDSGILRPSTVNELESGQISYDEVGERIKDFLQGSSCIAGIYNETTKQKLGIYEAMKIGLVRPGTALELLEAQAATGFIVDPVSNLRLPVEEAYKRGLVGIEFKEKLLSAERAVTGYNDPETGNIISLFQAMNKELIEKGHGIRLLEAQIATGGIIDPKESHRLPVDIAYKRGYFNEELSEILSDPSDDTKGFFDPNTEENLTYLQLKERCIKDEETGLCLLPLKEKKKQVQTSQKNTLRKRRVVIVDPETNKEMSVQEGVDLQPSLIS
